Literature values as cited in patent US8337823B2, “Modified macromolecule” (priority 2006, dated 2012).

Conditions: pH 4 and pH 5

Substance	stability of the conjugate in acidic conditions
α-methoxy-ω-(N-(2-methyl-s-octadedcyloxy-[1,3]dioxan-5-yl)-amido}-polyethyleneglycol110	not stable
α-methoxy-ω-N-(2-octadecyloxy-[1,3]dioxolan-4-yl)methylamido}-polyethyleneglycol110	good stability at both pH 4 and 5
α-methoxy-ω-{N-2-(3-hydroxypropyl-cholesterylcarbamate)-2-methyl-[1,3]dioxan-5-yl-amido}-polyethyleneglycol110	not stable
α-methoxy-ω-{N-(2-cholesteryloxy-[1,3]dioxolan-4-yl)methylamido)-polyethyleneglycol110	very stable at pH 5 but moderately less stable at pH 4
